This note sets out measurements from the supplement of paper PMC7125110.

± gives the standard error. For some assays here: Variants at the floor of the assay were thinned out.

Sequences and labels used below:
B1: glmS ribozyme (parent)
chain: AUAAAAGCGCCAGAACUACAGAAAUGUAGUUGACGAGGAGGAGGUUUAUCGAAUUUUCGGCGGAUGCCUCCAAA

What all share (conditions): with glucosamine-6-phosphate
In data set [1] the parent is B1. The data set is described as follows: kcat; higher = faster cleavage; RNA array. In short, it runs like this:
(§1)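 Tracking of barcoded ribozyme variants used a hybridised Cy3 probe at 37 °C, after in situ transcription by E. coli RNA polymerase on sequenced MiSeq chips. The flowed solution held 40 μM to 10 mM glucosamine-6-phosphate in HEPES/KCl/Mg(OAc)2 buffer, and imaging ran over ~14 h. kobs was taken from exponential decay fits of normalised per-tile medians, and kcat and KM from weighted Michaelis–Menten fits.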

Variants of B1 are the subject of data set [2]. Kind of data set: self-cleavage kobs at 160 uM GlcN6P; higher = faster cleavage; RNA array. The essentials:
as §1

The variants in data set [3] derive from B1. Kind of data set: self-cleavage kobs at 640 uM GlcN6P; higher = faster cleavage; RNA array. The essentials:
as §1

Data set [4] covers variants of B1. The data set is described as follows: self-cleavage kobs at 40 uM GlcN6P; higher = faster cleavage; RNA array. In short, it runs like this: as §1
Variants of B1 are the subject of data set [5]. Kind of data set: self-cleavage kobs at 2500 uM GlcN6P; higher = faster cleavage; RNA array. The essentials:
as §1

The variants in data set [6] derive from B1. Kind of data set: self-cleavage kobs at 10000 uM GlcN6P; higher = faster cleavage; RNA array. The essentials:
as §1

Data set [7] covers variants of B1. The data set is described as follows: KM; higher = weaker cofactor use; RNA array. The essentials: as §1

Take G35U G51C: in the data set with glucosamine-6-phosphate [1], the turnover number (kcat) (commonly the number of substrate molecules converted per active site and unit of time at saturation) was < 1e-05 s⁻¹. For the same variant, the “self-cleavage kobs at 160 uM GlcN6P” value with glucosamine-6-phosphate [2] was < 1e-05 s⁻¹. For the same variant, the “self-cleavage kobs at 640 uM GlcN6P” value in the data set with glucosamine-6-phosphate [3] is < 1e-05 s⁻¹.

Regarding G13U U57A, the kcat in the data set with glucosamine-6-phosphate [1] was determined as 2.08e-05 ± 4.9e-06 s⁻¹. Further, in the data set with glucosamine-6-phosphate [4], the “self-cleavage kobs at 40 uM GlcN6P” value was < 1e-05 s⁻¹.

Take U55A U65G: the kcat in the data set with glucosamine-6-phosphate [1] came out at 0.00556 ± 0.0024 s⁻¹. The “self-cleavage kobs at 40 uM GlcN6P” value in the data set with glucosamine-6-phosphate [4] turned out to be 7.69e-05 ± 2.5e-05 s⁻¹. Also, the “self-cleavage kobs at 160 uM GlcN6P” value in the data set with glucosamine-6-phosphate [2] was 0.000125 ± 4.4e-05 s⁻¹. Besides, the “self-cleavage kobs at 640 uM GlcN6P” value with glucosamine-6-phosphate [3] amounted to 0.000517 ± 0.0001 s⁻¹. Besides, the “self-cleavage kobs at 2500 uM GlcN6P” value with glucosamine-6-phosphate [5] worked out at 0.00303 ± 0.001 s⁻¹. In addition, the “self-cleavage kobs at 10000 uM GlcN6P” value in the data set with glucosamine-6-phosphate [6] turned out to be 0.00343 ± 0.00072 s⁻¹.

As to A42U C67G, in the data set with glucosamine-6-phosphate [1], the turnover number (kcat) worked out at 0.000997 ± 0.00019 s⁻¹. Further, the KM (as a rule, the concentration of substrate that gives half-maximal velocity) in the data set with glucosamine-6-phosphate [7] was found to be 853 ± 310 µM. In addition, the “self-cleavage kobs at 40 uM GlcN6P” value with glucosamine-6-phosphate [4] turned out to be 6.76e-05 ± 8.5e-06 s⁻¹. Moreover, the “self-cleavage kobs at 160 uM GlcN6P” value with glucosamine-6-phosphate [2] was 0.000114 ± 2.5e-05 s⁻¹. Further, in the data set with glucosamine-6-phosphate [3], the “self-cleavage kobs at 640 uM GlcN6P” value was 0.000369 ± 4.9e-05 s⁻¹. For the same variant, in the data set with glucosamine-6-phosphate [5], the “self-cleavage kobs at 2500 uM GlcN6P” value stood at 0.00082 ± 0.00012 s⁻¹. Also, the “self-cleavage kobs at 10000 uM GlcN6P” value in the data set with glucosamine-6-phosphate [6] amounted to 0.000939 ± 8.5e-05 s⁻¹.

With A6U G51A C71A, in the data set with glucosamine-6-phosphate [1], the turnover number (kcat) amounted to 5.19e-05 ± 1.7e-05 s⁻¹.

In the case of U57A U65G, in the data set with glucosamine-6-phosphate [1], the turnover number (kcat) is 4.49e-05 ± 7.1e-06 s⁻¹. In the data set with glucosamine-6-phosphate [4], the “self-cleavage kobs at 40 uM GlcN6P” value was < 1e-05 s⁻¹. Besides, in the data set with glucosamine-6-phosphate [5], the “self-cleavage kobs at 2500 uM GlcN6P” value was 4.6e-05 ± 1.3e-05 s⁻¹. The “self-cleavage kobs at 10000 uM GlcN6P” value in the data set with glucosamine-6-phosphate [6] came out at 3.88e-05 ± 1.2e-05 s⁻¹.

Turning to A53G U65A, in the data set with glucosamine-6-phosphate [1], the kcat was determined as 0.00318 ± 0.00053 s⁻¹. Besides, the Michaelis-Menten constant (KM) with glucosamine-6-phosphate [7] came out at 1530 ± 350 µM. For the same variant, in the data set with glucosamine-6-phosphate [4], the “self-cleavage kobs at 40 uM GlcN6P” value stood at 8.56e-05 ± 1.5e-05 s⁻¹. Further, the “self-cleavage kobs at 160 uM GlcN6P” value with glucosamine-6-phosphate [2] is 0.000257 ± 5e-05 s⁻¹. Moreover, the “self-cleavage kobs at 640 uM GlcN6P” value in the data set with glucosamine-6-phosphate [3] came to 0.00114 ± 0.00019 s⁻¹. In the data set with glucosamine-6-phosphate [5], the “self-cleavage kobs at 2500 uM GlcN6P” value came out at 0.00184 ± 0.00046 s⁻¹. Besides, the “self-cleavage kobs at 10000 uM GlcN6P” value with glucosamine-6-phosphate [6] came out at 0.00272 ± 0.00056 s⁻¹.

For G21A C58G U69G C71U, the catalytic constant (kcat) with glucosamine-6-phosphate [1] worked out at 4e-05 ± 1e-05 s⁻¹. Besides, the “self-cleavage kobs at 160 uM GlcN6P” value with glucosamine-6-phosphate [2] amounted to 5.48e-05 ± 1.6e-05 s⁻¹. The “self-cleavage kobs at 640 uM GlcN6P” value in the data set with glucosamine-6-phosphate [3] is 4.19e-05 ± 1.7e-05 s⁻¹. In addition, the “self-cleavage kobs at 2500 uM GlcN6P” value with glucosamine-6-phosphate [5] is 3.42e-05 ± 1.6e-05 s⁻¹.

Take U30C U46A: in the data set with glucosamine-6-phosphate [1], the turnover number (kcat) came out at 1.46e-05 ± 6.8e-06 s⁻¹. In addition, the “self-cleavage kobs at 40 uM GlcN6P” value with glucosamine-6-phosphate [4] is < 1e-05 s⁻¹.

U46G C50U U69A: in the data set with glucosamine-6-phosphate [1], the turnover number (kcat) is 3.77e-05 ± 1.1e-05 s⁻¹. In the data set with glucosamine-6-phosphate [6], the “self-cleavage kobs at 10000 uM GlcN6P” value was 4.11e-05 ± 1.3e-05 s⁻¹.

With C8A G37C, the kcat in the data set with glucosamine-6-phosphate [1] is < 1e-05 s⁻¹. For the same variant, the “self-cleavage kobs at 160 uM GlcN6P” value with glucosamine-6-phosphate [2] was < 1e-05 s⁻¹. Besides, the “self-cleavage kobs at 640 uM GlcN6P” value with glucosamine-6-phosphate [3] was < 1e-05 s⁻¹.

Consider G40A A64C, for which the kcat with glucosamine-6-phosphate [1] was determined as 6.62e-05 ± 1.1e-05 s⁻¹. Besides, the “self-cleavage kobs at 10000 uM GlcN6P” value with glucosamine-6-phosphate [6] is 5.19e-05 ± 1.5e-05 s⁻¹.

For G41C U55C, in the data set with glucosamine-6-phosphate [1], the turnover number (kcat) was 0.000176 ± 4.4e-05 s⁻¹. The “self-cleavage kobs at 2500 uM GlcN6P” value in the data set with glucosamine-6-phosphate [5] was 0.00012 ± 3.6e-05 s⁻¹. Further, the “self-cleavage kobs at 10000 uM GlcN6P” value with glucosamine-6-phosphate [6] worked out at 0.000129 ± 3.9e-05 s⁻¹.

Consider C16G C50U, for which the catalytic constant (kcat) with glucosamine-6-phosphate [1] was < 1e-05 s⁻¹. In the data set with glucosamine-6-phosphate [2], the “self-cleavage kobs at 160 uM GlcN6P” value is < 1e-05 s⁻¹.

For the variant A12U U55C, the catalytic constant (kcat) with glucosamine-6-phosphate [1] was 0.0176 ± 0.0056 s⁻¹. The KM in the data set with glucosamine-6-phosphate [7] stood at 464 ± 200 µM. Further, the “self-cleavage kobs at 40 uM GlcN6P” value with glucosamine-6-phosphate [4] is 0.0016 ± 0.00016 s⁻¹. In addition, the “self-cleavage kobs at 160 uM GlcN6P” value in the data set with glucosamine-6-phosphate [2] is 0.00304 ± 0.00062 s⁻¹. Further, the “self-cleavage kobs at 640 uM GlcN6P” value with glucosamine-6-phosphate [3] was found to be 0.0204 ± 0.0053 s⁻¹. In the data set with glucosamine-6-phosphate [5], the “self-cleavage kobs at 2500 uM GlcN6P” value is 0.0186 ± 0.0045 s⁻¹. Moreover, the “self-cleavage kobs at 10000 uM GlcN6P” value in the data set with glucosamine-6-phosphate [6] was 0.0162 ± 0.0029 s⁻¹.

Take G13A A39C: in the data set with glucosamine-6-phosphate [1], the kcat is 0.000118 ± 1.9e-05 s⁻¹. Also, the KM in the data set with glucosamine-6-phosphate [7] came to 3740 ± 1200 µM. The “self-cleavage kobs at 2500 uM GlcN6P” value with glucosamine-6-phosphate [5] is 4.55e-05 ± 7.4e-06 s⁻¹. For the same variant, the “self-cleavage kobs at 10000 uM GlcN6P” value in the data set with glucosamine-6-phosphate [6] is 8.77e-05 ± 1.6e-05 s⁻¹.

For C10G C11A, in the data set with glucosamine-6-phosphate [1], the catalytic constant (kcat) was < 1e-05 s⁻¹. Moreover, the “self-cleavage kobs at 40 uM GlcN6P” value with glucosamine-6-phosphate [4] was < 1e-05 s⁻¹. Also, in the data set with glucosamine-6-phosphate [3], the “self-cleavage kobs at 640 uM GlcN6P” value is < 1e-05 s⁻¹.

Take U47G C58G: the kcat in the data set with glucosamine-6-phosphate [1] came out at 0.000117 ± 5.4e-05 s⁻¹. The “self-cleavage kobs at 640 uM GlcN6P” value with glucosamine-6-phosphate [3] amounted to 5.51e-05 ± 2.1e-05 s⁻¹. Besides, the “self-cleavage kobs at 2500 uM GlcN6P” value with glucosamine-6-phosphate [5] amounted to 3.21e-05 ± 1.3e-05 s⁻¹. Also, in the data set with glucosamine-6-phosphate [6], the “self-cleavage kobs at 10000 uM GlcN6P” value is 8.31e-05 ± 1.2e-05 s⁻¹.

Consider G9A G13U, for which, in the data set with glucosamine-6-phosphate [1], the turnover number (kcat) was < 1e-05 s⁻¹. For the same variant, the “self-cleavage kobs at 2500 uM GlcN6P” value with glucosamine-6-phosphate [5] was < 1e-05 s⁻¹. For the same variant, the “self-cleavage kobs at 10000 uM GlcN6P” value with glucosamine-6-phosphate [6] was < 1e-05 s⁻¹.

Turning to A15C A42U, the kcat with glucosamine-6-phosphate [1] is 1.58e-05 ± 3.7e-06 s⁻¹. Besides, the “self-cleavage kobs at 40 uM GlcN6P” value in the data set with glucosamine-6-phosphate [4] is < 1e-05 s⁻¹. The “self-cleavage kobs at 160 uM GlcN6P” value with glucosamine-6-phosphate [2] was < 1e-05 s⁻¹.

Turning to U49A C71G, in the data set with glucosamine-6-phosphate [1], the catalytic constant (kcat) came out at 2.68e-05 ± 1e-05 s⁻¹. For the same variant, the “self-cleavage kobs at 640 uM GlcN6P” value with glucosamine-6-phosphate [3] stood at 3.32e-05 ± 1.2e-05 s⁻¹.
